Data taken from publication PMC4268493.

Target: TNF-FLAG (UniProt P01375)
Assay: SPR

Chain of UniProt P01375 (P01375 whole entry): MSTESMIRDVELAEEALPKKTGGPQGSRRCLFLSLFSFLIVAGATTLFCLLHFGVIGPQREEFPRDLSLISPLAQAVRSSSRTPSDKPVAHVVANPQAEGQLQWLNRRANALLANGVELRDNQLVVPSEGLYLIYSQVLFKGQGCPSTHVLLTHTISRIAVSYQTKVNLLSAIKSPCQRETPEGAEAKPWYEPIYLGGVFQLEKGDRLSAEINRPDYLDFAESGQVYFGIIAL

- Kd: 15.6 nM
Substance: Δ6-TNFR1-Fc fusion protein (from UniProt P19438-4 30-183)
